Data on 1 molecule can be found in paper PMC10851674 (Analytical chemistry, 2022).

The target in the assay is T1, rat cytochrome P450 reductase (rat, UniProt P00388 1-678).
T1 sequence (looked up): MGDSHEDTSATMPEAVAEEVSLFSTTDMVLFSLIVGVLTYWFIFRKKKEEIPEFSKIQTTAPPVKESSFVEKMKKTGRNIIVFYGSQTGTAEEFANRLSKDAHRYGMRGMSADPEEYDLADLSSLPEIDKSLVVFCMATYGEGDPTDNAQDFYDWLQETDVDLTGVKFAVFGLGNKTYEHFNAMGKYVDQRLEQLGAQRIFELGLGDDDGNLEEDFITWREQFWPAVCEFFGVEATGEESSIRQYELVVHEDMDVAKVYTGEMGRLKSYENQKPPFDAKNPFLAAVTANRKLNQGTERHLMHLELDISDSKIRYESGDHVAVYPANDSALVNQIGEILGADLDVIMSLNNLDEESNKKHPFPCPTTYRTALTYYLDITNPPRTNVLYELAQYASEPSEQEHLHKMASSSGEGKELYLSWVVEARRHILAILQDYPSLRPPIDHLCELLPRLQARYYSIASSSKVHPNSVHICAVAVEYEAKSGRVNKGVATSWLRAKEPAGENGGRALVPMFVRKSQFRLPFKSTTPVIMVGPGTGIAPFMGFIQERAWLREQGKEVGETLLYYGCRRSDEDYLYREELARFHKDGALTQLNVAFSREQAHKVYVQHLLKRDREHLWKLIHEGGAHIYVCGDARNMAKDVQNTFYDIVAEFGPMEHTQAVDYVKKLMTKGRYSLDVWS
Nature of the assay: SEC. On the technique in general: In gel filtration, larger molecules generally elute earlier.

B1: rabbit cytochrome P450 2B4 (enzyme, UniProt P00178 1-491, looked up)
chain: MEFSLLLLLAFLAGLLLLLFRGHPKAHGRLPPGPSPLPVLGNLLQMDRKGLLRSFLRLREKYGDVFTVYLGSRPVVVLCGTDAIREALVDQAEAFSGRGKIAVVDPIFQGYGVIFANGERWRALRRFSLATMRDFGMGKRSVEERIQEEARCLVEELRKSKGALLDNTLLFHSITSNIICSIVFGKRFDYKDPVFLRLLDLFFQSFSLISSFSSQVFELFPGFLKHFPGTHRQIYRNLQEINTFIGQSVEKHRATLDPSNPRDFIDVYLLRMEKDKSDPSSEFHHQNLILTVLSLFFAGTETTSTTLRYGFLLMLKYPHVTERVQKEIEQVIGSHRPPALDDRAKMPYTDAVIHEIQRLGDLIPFGVPHTVTKDTQFRGYVIPKNTEVFPVLSSALHDPRYFETPNTFNPGHFLDANGALKRNEGFMPFSLGKRICLGEGIARTELFLFFTTILQNFSIASPVPPEDIDLTPRESGVGNVPPSYQIRFLAR
In the case of B1, the binding result is reported as “binds”.
